The source of these data is patent publication US20150164995A1 (Sanofi, published 2015).

Read-outs that look alike come from different tables or passages of the source. Square brackets hold non-standard residues; d marks the D form. Ends that are not written are not given here. Nle = CCCC[C@H](N)C(=O)O; Aib = CC(C)(N)C(=O)O

Common to all, as to assay: cell-based or functional assay
For assay [1], the target named is human glucagon receptor (human) (UniProt P47871).
Assay [2] addresses human GLP-1 receptor (human) (UniProt P43220).
Assay [3] has as its target T1, human GLP-1 receptor (human, UniProt P43220 24-463).
The next assay has as its target human glucagon receptor (human, UniProt P47871 26-477).
Assay [4] concerns the target T2, human GIP receptor (human, UniProt P48546 22-466).
T2 sequence (looked up): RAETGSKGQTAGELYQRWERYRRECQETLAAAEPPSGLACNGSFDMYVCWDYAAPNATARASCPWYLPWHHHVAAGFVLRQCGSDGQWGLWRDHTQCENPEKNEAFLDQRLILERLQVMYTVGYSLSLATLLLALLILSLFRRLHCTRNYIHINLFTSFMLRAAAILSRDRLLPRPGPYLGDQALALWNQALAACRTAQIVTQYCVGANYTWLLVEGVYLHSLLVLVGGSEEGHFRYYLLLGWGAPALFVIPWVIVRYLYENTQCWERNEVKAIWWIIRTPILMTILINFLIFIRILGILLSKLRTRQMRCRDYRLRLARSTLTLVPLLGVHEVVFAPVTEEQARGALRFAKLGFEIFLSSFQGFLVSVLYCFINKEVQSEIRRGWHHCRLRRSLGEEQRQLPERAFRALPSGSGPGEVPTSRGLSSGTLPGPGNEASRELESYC

In assay [5] the target is T1, human GLP-1 receptor. This is another data set of the same source.
Target sequence in this assay (P43220 24-463): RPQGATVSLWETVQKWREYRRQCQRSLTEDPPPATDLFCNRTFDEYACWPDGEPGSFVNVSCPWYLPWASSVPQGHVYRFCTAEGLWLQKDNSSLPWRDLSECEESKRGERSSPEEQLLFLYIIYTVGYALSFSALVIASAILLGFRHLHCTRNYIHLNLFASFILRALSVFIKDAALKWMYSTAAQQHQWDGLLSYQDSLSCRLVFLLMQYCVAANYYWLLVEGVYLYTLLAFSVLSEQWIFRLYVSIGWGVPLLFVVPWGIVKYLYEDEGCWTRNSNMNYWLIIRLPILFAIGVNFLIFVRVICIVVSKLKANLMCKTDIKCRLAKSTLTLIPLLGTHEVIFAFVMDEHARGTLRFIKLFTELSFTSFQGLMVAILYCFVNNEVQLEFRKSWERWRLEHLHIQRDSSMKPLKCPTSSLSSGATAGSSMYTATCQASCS
In assay [6] the target is T2, human GIP receptor. This is another data set of the same source.

Chain of human glucagon receptor (P47871 26-477): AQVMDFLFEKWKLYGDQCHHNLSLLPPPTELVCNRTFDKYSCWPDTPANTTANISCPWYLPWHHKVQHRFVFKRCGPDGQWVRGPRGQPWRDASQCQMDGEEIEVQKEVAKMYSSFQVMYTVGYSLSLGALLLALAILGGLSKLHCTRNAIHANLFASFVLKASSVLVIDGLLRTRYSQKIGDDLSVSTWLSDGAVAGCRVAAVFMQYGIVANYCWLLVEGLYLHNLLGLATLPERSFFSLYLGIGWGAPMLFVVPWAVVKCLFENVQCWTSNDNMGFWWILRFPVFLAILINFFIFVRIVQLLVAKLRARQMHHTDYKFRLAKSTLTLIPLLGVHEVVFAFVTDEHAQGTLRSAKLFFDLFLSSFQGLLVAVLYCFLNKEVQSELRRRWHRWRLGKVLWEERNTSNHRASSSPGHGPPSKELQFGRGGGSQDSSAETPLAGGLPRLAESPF
Chain of human glucagon receptor (human) (P47871 26-477): as above
Chain of human GLP-1 receptor (human) (P43220 24-463): as the sequence (P43220 24-463) above

In assay [1], exendin-4 (peptide) returned an EC50 hGlucagon R [pM] (cAMP formation, HTRF, HEK-293 cells) greater than 1e+07 pM. In addition, the EC50 hGLP-1 R [pM] (cAMP formation, HTRF, HEK-293 cells) in assay [2] turned out to be 0.4 pM.

B1: SEQ ID NO: 9 (peptide)
peptide: Y[Aib]EGTFTSDLSIQLEKRAA[Aib]EFIEWLKAGGPSSGAPPPS-NH2
modifications: N-terminus assumed
SMILES: CC[C@H](C)[C@H](NC(=O)[C@H](CO)NC(=O)[C@H](CC(C)C)NC(=O)[C@H](CC(=O)O)NC(=O)[C@H](CO)NC(=O)[C@@H](NC(=O)[C@H](Cc1ccccc1)NC(=O)[C@@H](NC(=O)CNC(=O)[C@H](CCC(=O)O)NC(=O)C(C)(C)NC(=O)[C@@H](N)Cc1ccc(O)cc1)[C@@H](C)O)[C@@H](C)O)C(=O)N[C@@H](CCC(N)=O)C(=O)N[C@@H](CC(C)C)C(=O)N[C@@H](CCC(=O)O)C(=O)N[C@@H](CCCCN)C(=O)N[C@@H](CCCNC(=N)N)C(=O)N[C@@H](C)C(=O)N[C@@H](C)C(=O)NC(C)(C)C(=O)N[C@@H](CCC(=O)O)C(=O)N[C@@H](Cc1ccccc1)C(=O)N[C@H](C(=O)N[C@@H](CCC(=O)O)C(=O)N[C@@H](Cc1c[nH]c2ccccc12)C(=O)N[C@@H](CC(C)C)C(=O)N[C@@H](CCCCN)C(=O)N[C@@H](C)C(=O)NCC(=O)NCC(=O)N1CCC[C@H]1C(=O)N[C@@H](CO)C(=O)N[C@@H](CO)C(=O)NCC(=O)N[C@@H](C)C(=O)N1CCC[C@H]1C(=O)N1CCC[C@H]1C(=O)N1CCC[C@H]1C(=O)N[C@@H](CO)C(N)=O)[C@@H](C)CC
As for B1, the “EC50 hGLP-1 R [pM] (cAMP formation, HTRF, HEK-293 cells)” value (“EC50 hGLP-1 R [pM]” for short) in the assay with human GLP-1 receptor [3] turned out to be 1.2 pM. The “EC50 hGLUC R [pM] (cAMP formation, HTRF, HEK-293 cells)” value (from here on “EC50 hGLUC R [pM]”) with human glucagon receptor was 155000 pM. The “EC50 hGlP R [pM] (cAMP formation, HTRF, HEK-293 cells)” value (“EC50 hGlP R [pM]” below) in the assay with human GIP receptor [4] worked out at 7.9 pM.
As to YAEGTFTSDVSIYLEGQAAKEFIAWLVKGR (ends and bridges not checked) [Tyr(1)Ile(12)-GLP1], the “EC50 hGLP-1 R [pM]” value in the assay with human GLP-1 receptor [5] came out at 5 pM. Also, the “EC50 hGlP R [pM]” value in the assay with human GIP receptor [6] came out at 3660 pM.
For Y[Aib]EGTFTSDLSIQMEKRAA[Aib]EFIEWLKAGGPSSGAPPPS-NH2 [SEQ ID NO: 8], the “EC50 hGLP-1 R [pM]” value in the assay with human GLP-1 receptor [3] came to 1.5 pM. Further, the “EC50 hGLUC R [pM]” value with human glucagon receptor is greater than 1e+06 pM. The “EC50 hGlP R [pM]” value in the assay with human GIP receptor [4] amounted to 14.4 pM.

B2: SEQ ID NO: 10 (peptide)
peptide: Y[Aib]EGTFTSDLSIQ[Nle]EKRAA[Aib]EFIEWLKAGGPSSGAPPPS-NH2
modifications: N-terminus assumed
SMILES: CCCC[C@H](NC(=O)[C@H](CCC(N)=O)NC(=O)[C@@H](NC(=O)[C@H](CO)NC(=O)[C@H](CC(C)C)NC(=O)[C@H](CC(=O)O)NC(=O)[C@H](CO)NC(=O)[C@@H](NC(=O)[C@H](Cc1ccccc1)NC(=O)[C@@H](NC(=O)CNC(=O)[C@H](CCC(=O)O)NC(=O)C(C)(C)NC(=O)[C@@H](N)Cc1ccc(O)cc1)[C@@H](C)O)[C@@H](C)O)[C@@H](C)CC)C(=O)N[C@@H](CCC(=O)O)C(=O)N[C@@H](CCCCN)C(=O)N[C@@H](CCCNC(=N)N)C(=O)N[C@@H](C)C(=O)N[C@@H](C)C(=O)NC(C)(C)C(=O)N[C@@H](CCC(=O)O)C(=O)N[C@@H](Cc1ccccc1)C(=O)N[C@H](C(=O)N[C@@H](CCC(=O)O)C(=O)N[C@@H](Cc1c[nH]c2ccccc12)C(=O)N[C@@H](CC(C)C)C(=O)N[C@@H](CCCCN)C(=O)N[C@@H](C)C(=O)NCC(=O)NCC(=O)N1CCC[C@H]1C(=O)N[C@@H](CO)C(=O)N[C@@H](CO)C(=O)NCC(=O)N[C@@H](C)C(=O)N1CCC[C@H]1C(=O)N1CCC[C@H]1C(=O)N1CCC[C@H]1C(=O)N[C@@H](CO)C(N)=O)[C@@H](C)CC
As to B2, in the assay with human GLP-1 receptor [3], the “EC50 hGLP-1 R [pM]” value was 1.4 pM. Further, in the assay with human glucagon receptor, the “EC50 hGLUC R [pM]” value turned out to be 193000 pM. In addition, in the assay with human GIP receptor [4], the “EC50 hGlP R [pM]” value was 12.4 pM.

B3: SEQ ID NO: 11 (peptide)
peptide: Y[Aib]EGTFTSDLSIQLEKRAA[Aib]EFIEWLKAGGPSSGAPPPSK-NH2
modifications: N-terminus assumed
SMILES: CC[C@H](C)[C@H](NC(=O)[C@H](CO)NC(=O)[C@H](CC(C)C)NC(=O)[C@H](CC(=O)O)NC(=O)[C@H](CO)NC(=O)[C@@H](NC(=O)[C@H](Cc1ccccc1)NC(=O)[C@@H](NC(=O)CNC(=O)[C@H](CCC(=O)O)NC(=O)C(C)(C)NC(=O)[C@@H](N)Cc1ccc(O)cc1)[C@@H](C)O)[C@@H](C)O)C(=O)N[C@@H](CCC(N)=O)C(=O)N[C@@H](CC(C)C)C(=O)N[C@@H](CCC(=O)O)C(=O)N[C@@H](CCCCN)C(=O)N[C@@H](CCCNC(=N)N)C(=O)N[C@@H](C)C(=O)N[C@@H](C)C(=O)NC(C)(C)C(=O)N[C@@H](CCC(=O)O)C(=O)N[C@@H](Cc1ccccc1)C(=O)N[C@H](C(=O)N[C@@H](CCC(=O)O)C(=O)N[C@@H](Cc1c[nH]c2ccccc12)C(=O)N[C@@H](CC(C)C)C(=O)N[C@@H](CCCCN)C(=O)N[C@@H](C)C(=O)NCC(=O)NCC(=O)N1CCC[C@H]1C(=O)N[C@@H](CO)C(=O)N[C@@H](CO)C(=O)NCC(=O)N[C@@H](C)C(=O)N1CCC[C@H]1C(=O)N1CCC[C@H]1C(=O)N1CCC[C@H]1C(=O)N[C@@H](CO)C(=O)N[C@@H](CCCCN)C(N)=O)[C@@H](C)CC
In the case of B3, the “EC50 hGLP-1 R [pM]” value in the assay with human GLP-1 receptor [3] is 1.6 pM. Also, the “EC50 hGLUC R [pM]” value with human glucagon receptor is 129000 pM. Besides, in the assay with human GIP receptor [4], the “EC50 hGlP R [pM]” value was determined as 14.1 pM.

B4: SEQ ID NO: 12 (peptide)
peptide: Y[Aib]EGTFTSDLSIQLDKRAA[Aib]EFIEWLKAGGPSSGAPPPS-NH2
modifications: N-terminus assumed
SMILES: CC[C@H](C)[C@H](NC(=O)[C@H](CO)NC(=O)[C@H](CC(C)C)NC(=O)[C@H](CC(=O)O)NC(=O)[C@H](CO)NC(=O)[C@@H](NC(=O)[C@H](Cc1ccccc1)NC(=O)[C@@H](NC(=O)CNC(=O)[C@H](CCC(=O)O)NC(=O)C(C)(C)NC(=O)[C@@H](N)Cc1ccc(O)cc1)[C@@H](C)O)[C@@H](C)O)C(=O)N[C@@H](CCC(N)=O)C(=O)N[C@@H](CC(C)C)C(=O)N[C@@H](CC(=O)O)C(=O)N[C@@H](CCCCN)C(=O)N[C@@H](CCCNC(=N)N)C(=O)N[C@@H](C)C(=O)N[C@@H](C)C(=O)NC(C)(C)C(=O)N[C@@H](CCC(=O)O)C(=O)N[C@@H](Cc1ccccc1)C(=O)N[C@H](C(=O)N[C@@H](CCC(=O)O)C(=O)N[C@@H](Cc1c[nH]c2ccccc12)C(=O)N[C@@H](CC(C)C)C(=O)N[C@@H](CCCCN)C(=O)N[C@@H](C)C(=O)NCC(=O)NCC(=O)N1CCC[C@H]1C(=O)N[C@@H](CO)C(=O)N[C@@H](CO)C(=O)NCC(=O)N[C@@H](C)C(=O)N1CCC[C@H]1C(=O)N1CCC[C@H]1C(=O)N1CCC[C@H]1C(=O)N[C@@H](CO)C(N)=O)[C@@H](C)CC
B4: the “EC50 hGLP-1 R [pM]” value in the assay with human GLP-1 receptor [3] is 2.6 pM. Also, the “EC50 hGLUC R [pM]” value with human glucagon receptor was determined as 17900 pM. In addition, in the assay with human GIP receptor [4], the “EC50 hGlP R [pM]” value stood at 17.9 pM.
